Laboratory results taken from patent US20230192896A1 (BIOVERATIV THERAPEUTICS, published 2023).

Assays:
[1] = target: T1, free FIXa (activated Factor IX) (human, UniProt P00740 47-191; P00740 227-461); experiment: BLI; class meaning: paragraph 914
T1 construct: BLI antigen bought from Haematologic Technologies (HCIXA-0050); also called factor IXa

FIXa-SM (FIXa+EGR-CMK) = target: T2, FIXa-SM (FIXa+EGR-CMK) (human, UniProt P00740 47-191; P00740 227-461, EGR-CMK (L-Glu-Gly-Arg chloromethyl ketone) covalently bound to the active site); experiment: BLI; class meaning: paragraph 914
T2 construct: BLI antigen bought from Haematologic Technologies (HCIXA-EGR); also called FIXa with substrate mimic

Binder | binding result [1] | binding result (FIXa-SM (FIXa+EGR-CMK))
BIIB-9-1272 (antibody, V domains shown, IgG) VH: QVQLVQSGAEVKKPGASVKVSCKASGYTFTSYYMHWVRQAPGQGLEWMGIINPSGGSTSYAQKFQGRVTMTRDTSTSTVYMELSSLRSEDTAVYYCARDTGGYAFDIWGQGTLVTVSS VL: DIQMTQSPSSVSASVGDRVTITCRASQGISSWLAWYQQKPGKAPKLLIYAASSLQSGVPSRFSGSGSGTDFTLTISSLQPEDFATYYCQQASSFPFTFGGGTKVEIK | binds | binds
BIIB-9-1283 (antibody, V domains shown, IgG) VH: QVQLVQSGAEVKKPGASVKVSCKASGYTFTSYYMVWVRQAPGQGLEWMGIINPSGGSTSYAQKFQGRVTMTRDTSTSTVYMELSSLRSEDTAVYYCARVPTYRYSYLAFDIWGQGTMVTVSS VL: DIQMTQSPSSVSASVGDRVTITCRASQGISSWLAWYQQKPGKAPKLLIYAASSLQSGVPSRFSGSGSGTDFTLTISSLQPEDFATYYCQQASSFPPTFGGGTKVEIK | binds | binds
BIIB-9-1274 (antibody, V domains shown, IgG) VH: QVQLVQSGAEVKKPGASVKVSCKASGYTFTSYYMHWVRQAPGQGLEWMGIINPSGGSTSYAQKFQGRVTMTRDTSTSTVYMELSSLRSEDTAVYYCARDTGGYAFDIWGQGTLVTVSS VL: DIQMTQSPSSVSASVGDRVTITCRASQGISSWLAWYQQKPGKAPKLLIYAASSLQSGVPSRFSGSGSGTDFTLTISSLQPEDFATYYCQQANSFPFTFGGGTKVEIK | binds | binds
BIIB-9-1279 (antibody, V domains shown, IgG) VH: QVQLVQSGAEVKKPGASVKVSCKASGYTFTSYYMHWVRQAPGQGLEWMGIINPSGGSTSYAQKFQGRVTMTRDTSTSTVYMELSSLRSEDTAVYYCARGPTDSSGYLDMDVWGKGTTVTVSS VL: DIQMTQSPSSVSASVGDRVTITCRASQGISSWLAWYQQKPGKAPKLLIYAASSLQSGVPSRFSGSGSGTDFTLTISSLQPEDFATYYCQQASSFPPTFGGGTKVEIK | binds | binds
BIIB-9-1268 (antibody, V domains shown, IgG) VH: QVQLVQSGAEVKKPGASVKVSCKASGYTFTSYYMHWVRQAPGQGLEWMGIINPSGGSTSYAQKFQGRVTMTRDTSTSTVYMELSSLRSEDTAVYYCARDPPSWYVFDIWGQGTMVTVSS VL: EIVMTQSPATLSLSPGERATLSCRASQSVSSYLAWYQQKPGQAPRLLIYDASNRATGIPARFSGSGSGTDFTLTISSLEPEDFAVYYCQQATVWPFTFGGGTKVEIK | binds | binds
BIIB-9-1269 (antibody, V domains shown, IgG) VH: QVQLVQSGAEVKKPGASVKVSCKASGYTFTSYYMHWVRQAPGQGLEWMGIINPSGGSTSYAQKFQGRVTMTRDTSTSTVYMELSSLRSEDTAVYYCARDRGQYYHFDLWGRGTLVTVSS VL: DIQMTQSPSSVSASVGDRVAITCRASQGISSWLAWYQQKPGKAPKLLIYAASSLQSGVPSRFSGSGSGTDFTLTISSLQPEDFATYYCQQASSFPFTFGGGTKVEIK | binds | binds
BIIB-9-1277 (antibody, V domains shown, IgG) VH: QVQLVQSGAEVKKPGASVKVSCKASGYTFTSYYMHWVRQAPGQGLEWMGIINPSGGSTSYAQKFQGRVTMTRDTSTSTVYMELSSLRSEDTAVYYCARGGTGYYYGSGSRDGYHYYYGMDVWGQGTTVTVSS VL: EIVMTQSPATLSVSPGERATLSCRASQSVSSYLAWYQQKPGQAPRLLIYDASNRATGIPARFSGSGSGTDFTLTISSLEPEDLAVYYCQQSANWPPTFGGGTKVEIK | binds | binds
BIIB-9-1270 (antibody, V domains shown, IgG) VH: QVQLVQSGAEVKKPGASVKVSCKASGYTFTSYYMHWVRQAPGQGLEWMGIINPSGGSTSYAQKFQGRVTMTRDTSTSTVYMELSSLRSEDTAVYYCARDTGGYAFDIWGQGTLVTVSS VL: EIVLTQSPATLSLSPGERATLSCRASQSVSSYLAWYQQKPGQAPRLLIYDASNRATGIPARFSGSGSGTDFTLTISSLEPEDFAVYYCQQSADFPFTFGGGTKVEIK | binds | binds
BIIB-9-1271 (antibody, V domains shown, IgG) VH: QVQLVQSGAEVKKPGASVKVSCKASGYTFTSYYMHWVRQAPGQGLEWMGIINPSGGSTSYAQKFQGRVTMTRDTSTSTVYMELSSLRSEDTAVYYCARDTGGYAFDIWGQGTLVTVSS VL: EIVMTQSPATLSVSPGERATLSCRASQSVSSNLAWYQQKPGQAPRLLIYGASTRATGIPARFSGSGSGTDFTLTISSLQPEDFATYYCQQGFSFPFTFGGGTKVEIK | binds | binds
BIIB-9-1273 (antibody, V domains shown, IgG) VH: QVQLVQSGAEVKKPGASVKVSCKASGYTFTSYYMHWVRQAPGQGLEWMGIINPSGGSTSYAQKFQGRVTMTRDTSTSTVYMELSSLRSEDTAVYYCARDTGGYAFDIWGQGTLVTVSS VL: EIVLTQYPATLSLSPGERATLSCRASQSVSSYLAWYQQKPGQAPRLLIYDASNRATGIPARFSGSGSGTDFTLTISSLEPEDFAVYYCQQSANFPFTFGGGTKVEIK | binds | binds
BIIB-9-1282 (antibody, V domains shown, IgG) VH: QVQLVQSGAEVKKPGASVKVSCKASGYTFTSYYMVWVRQAPGQGLEWMGIINPSGGSTSYAQKFQGRVTMTRDTSTSTVYMELSSLRSEDTAVYYCARVPTYRYSYLAFDIWGQGTMVTVSS VL: EIVMTQSPATLSVSPGERATLSCRASQSVSSNLAWYQQKPGQAPRLLIYGASTRATGIPARFSGSGSGTEFTLTISSLQSEDFAVYYCQQHNHLPITFGGGTKVEIK | binds | binds
BIIB-9-1278 (antibody, V domains shown, IgG) VH: QVQLVQSGAEVKKPGASVKVSCKASGYTFTSYYMVWVRQAPGQGLEWMGIINPSGGSTSYAQKFQGRVTMTRDTSTSTVYMELSSLRSEDTAVYYCARGPGELGYYLAFDIWGQGTMVTVSS VL: EIVMTQSPATLSVSPGERATLSCRASQSVSSNLAWYQQKPGQAPRLLIYGASTRATGIPARFSGSGSGTEFTLTISSLQSEDFAVYYCQQHANFPPTFGGGTKVEIK | binds | binds
BIIB-9-1284 (antibody, V domains shown, IgG) VH: QVQLVQSGAEVKKPGASVKVSCKASGYTFTSYYMVWVRQAPGQGLEWMGIINPSGGSTSYAQKFQGRVTMTRDTSTSTVYMELSSLRSEDTAVYYCARVPTYRYSYLAFDIWGQGTMVTVSS VL: EIVLTQSPATLSVSPGERATLSCRASQSVGSNLAWYQQKPGQAPRLLIYGASTRATGIPARFSGSGSGTEFTLTISSLQSEDFAVYYCQQHNHLPITFGGGTKVEIK | binds | binds
BIIB-9-1285 (antibody, V domains shown, IgG) VH: QVQLVQSGAEVKKPGASVKVSCKASGYTFTSYYMVWVRQAPGQGLEWMGIINPSGGSTSYAQKFQGRVTMTRDTSTSTVYMELSSLRSEDTAVYYCARVPTYRYSYLAFDIWGQGTMVTVSS VL: EIVMTQSPATLSVSPGERATLSCRASQSVSSNLAWYQQKPGQAPRLLIYGASTRATGIPARFSGSGSGTEFTLTISSLQSEDFAVYYCQQASNFPPTFGGGTKVEIK | binds | binds
BIIB-9-1267 (antibody, V domains shown, IgG) VH: QVQLVQSGAEVKKPGASVKVSCKASGYTFTSYYMHWVRQAPGQGLEWMGIINPSGGSTSYAQKFQGRVTMTRDTSTSTVYMELSSLRSEDTAVYYCARDHGWAIYGMDVWGQGTTVTVSS VL: not shown | binds | binds
